Data: US20180043006A1 (UNIVERSITY OF VIRGINIA PATENT FOUNDATION, published 2018)

Tests used:
[1] = molecular target: T1, HLA-DR molecule DRB1*0401 (human); test: peptide displayed on HLA-DR tetramer, ex vivo staining
T1 construct: Used as a PE-conjugated peptide/MHCII tetramer assembled by a cited method

[2] = molecular target: T1, HLA-DR molecule DRB1*0401; test: peptide displayed on HLA-DR tetramer, ex vivo staining of PBMCs
Source text: Biologically relevant pMHCII complexes were identified by tetramer-guided epitope mapping (TGEM). This involved 2 steps: First, PBMC cultures established from subjects with known HLA-DR types were stimulated with RV peptide pools derived from VP1, VP2, or VP4, and then stained with pMHCII tetramer pools composed of HLA-DR molecules corresponding to those expressed in the test subject; Second, positive signals were de-convoluted by repeating and staining with single-peptide tetramers.
All experiments were performed in subjects expressing HLA-DR molecules corresponding to the selected tetramer. Precursor frequencies of circulating tetramer+ cells were then calculated by established methods [43]. Tetramer+ cells were phenotyped for surface markers by staining PBMCs with PE-conjugated tetramers, labeling with anti-PE magnetic beads, enriching with an AutoMACS separator (Miltenyi Biotec, Auburn, Calif., USA), and then counterstaining for surface markers. […] For simplicity, identified RV-A16 peptide epitopes were given a numerical designation.

[3] = molecular target: T2, HLA-DR molecule DRB1*0101 (human); test: peptide displayed on HLA-DR tetramer (TGEM)
T2 construct: Used as a PE-conjugated peptide/MHCII tetramer assembled by a cited method

[4] = molecular target: T3, HLA-DR molecule DRB1*0701 (human); test: peptide displayed on HLA-DR tetramer (TGEM)
T3 construct: Used as a PE-conjugated peptide/MHCII tetramer assembled by a cited method

Row | Binder | binding result [1] | binding result [3] | other results
1 | SDDNWLNFDGTLLGNLLIFP (Residues 169-188 of RV-A39 VP2; also called RV-A39 VP2 peptide) [RV-A39 VP2169-188 peptide epitope] | binds |  | 
2 | AQVRRKFEMFTYVRFDSEIT [RV-A39 VP1105-124 peptide epitope] | binds |  | 
3 | NEKQPSDDNWLNFDGTLLGN (20mer from the overlapping RV-A16 VP2 peptide library, loaded on HLA-DR tetramers) [RV-A16 VP2P21 peptide epitope] |  |  | binding result [2]: binds
4 | PHQFINLRSNNSATLIVPYV [RV-A16 VP2P24 peptide epitope] |  | binds | 
5 | PRFSLPFLSIASAYYMFYDG (20mer from the overlapping RV-A16 VP1 peptide library, loaded on HLA-DR tetramers) [RV-A16 VP1P23 peptide epitope] |  | binds | binding result [4]: binds
